Experimental data as given in the RNAGym collection of RNA variant scans (doi:10.1073/pnas.2313332121).
Fewer inactive variants are shown than the library holds.

B1: TPR 5TU (parent)
chain: GGAUCUUCUCGAUCUAACAAAAAAGACAAAUCUGCCACAAAGCUUGAGAGCAUCUUCGGAUGCAGAGGCGGCAGCCUUCGGUGGCGCGAUAGCGCCAACGUUCUCAACUAUGACACGCAAAACGCGUGCUCCGUUGAAUGGAGUUUAUCAUG

Variants of: B1
Experiment: polymerase ribozyme fitness, log enrichment relative to wild type (log ratio); higher = more active; in vitro selection for triplet polymerase activity
In short: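 In triplicate, a single round of in vitro selection was run on each mutant library, PCR-built and transcribed, covering one subunit of a heterodimeric triplet polymerase ribozyme. Frozen incubation at −7 °C followed annealing with a biotinylated primer, partner subunit and triplets, and extended constructs were then gel-excised, streptavidin-captured and taken through RT-PCR. Fitness is the logarithm of genotype enrichment over wild-type enrichment, from inverse-variance-weighted replicate averages of Illumina-sequenced inputs and outputs. […] only genotypes with ≥10 input reads and ≥1 read per output were kept.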

Row | Variant | polymerase ribozyme fitness (log ratio)
1 | GGAUCUUCUCGAUCUAACAAAAAAGACAAAUCUGCCACGAAGCUUGAGAGCAUCUUCGGAUGCAGAGGCGGCAGCCUUCGGUGGCGCGAUAGCGCCAACGUUCUCAACUAUGACACGCAAAACGCGUGCUCCGUUGAAUGGAGUAUAUCAUG [A39G U145A] | -1.85
2 | GGAUCUUCUCGAUCUAACAAAAAAGACAAAUCUGCCACGAAGCUUGAGAGCAUCUACUGAUGCAGAGGCGGCAGCCUUCGGUGGCGCGAUAGCGCCAACGUUCUCAACUAUGACACGCAAAACGCGUGCUCCGUUGAAUGAAGUUUAUCAUG [A39G U56A G58U G141A] | -1.28
3 | GGAUCUUCUCGAUCUAACAAAAAAGACAAAUCUGCCACGAAGCUUGAGAGCAUCUUCAGAUGCAGAGGCGGCAGCCUUCGGUGGCGCGAUAGCGCCAACGUUCUCAACUAUGACACGCAAAACGCGUGCUCCGUUGAAUGGAGUUUAUCAUG [A39G G58A] | -1.68
4 | GGAUCUUCUCGAUCUAACAAAAAAGACAAAUCUGCCACGAAGCUUAAGAGCAUCUACGGAUGCAGAGGCGGCAGCCUUCGGUGGCGCGAUAGUGCCAACGUUCUCAAAUAUGACACGCAAAACGCGUGCUCCGUUGAAUGGAGUUUAUCAUG [A39G G46A U56A C93U C108A] | ≤ -4.2
5 | GGAUCUUCUCGAUCUAACAAAAAAGACAAAUCUGCCACGAAGCUUGAGAGCAUCUUCGGAUGCAGAGGCGGCAGCCUUCGGUGGCGCGAUAGCGCCAACGUUCUCAACUAUGACACGCAAAACGCGUGCUCCGUUGAAUGGAGCUUAUCAUG [A39G U144C] | -2.67
6 | GGAUCUUCUCGAUCUAACAAAAAAGACAAAUCUGCCACGAAGCUUGAGAGCAUGUUCGGAUGCAGAGGCGGCAGCCUUCGGUGGCGCGAUAGCGCCAACGUUCUCUACUAUGACACGCAAAACGCGUGCUCCGUUGAAUGGAGUUUAUCAUG [A39G C54G A106U] | ≤ -4.2
7 | GGAUCUUCUCGAUCUAACAAAAAAGACAAAUCUGCCACGAAGCUUGAGAGCAUCUACGGAUGCAGAGGCGGCAGCCUUCGGUGGCGCGAUAGCUCCAACGUUCUCAACUAUGACACGCAUAACGCGUGCUCCGUUGAAUGCAGUUUAUCAUG [A39G U56A G94U A120U G141C] | -3.09
8 | GGAUCUUCUCGAUCUAACAAAAAAGACAAAUCUGCCACCAAGCUUGAGAACAUCUUCGGAUGCAGAGGCGGCAGCCUUCGGUGGCACGAUAGCUCCAACGUUCUCAACUAUGACACGCAAAACGCGUGCUCCAUUGAAUGGAGUUUAUCAUG [A39C G50A G86A G94U G133A] | ≤ -4.2
9 | GGAUCUUCUCGAUCUAACAAAAAAGACAAAUCUGCCACGAAGCUUGAGAGCAUCUUCGGCUGCAGAGGCGGCAGCCUUCGGUGACGGGAUAGCGGCAACGUUCUCAACUAUGACACGGAAAACGCGUGCUCCGUUGAAUGGAGUGUAUCAUG [A39G A60C G84A C87G C95G C118G U145G] | ≤ -4.2
10 | GGAUCUUCUCGAUCUAACAAAAAAGACAAAUCUGCCACCAAGCUUGAGAGCAUCUUCGGAUGCAGAGGCGGCAGCCUUCGGUUGCGCGAUAGCGCCAACGUUCUCAACUAUGACACGCAAAACGCGUGCUCCGUUGAAUGGAGUUUAUCAUG [A39C G83U] | -2.83
11 | GGAUCUUCUCGAUCUAACAAAAAAGACAAAUCUGCCACCAAGCUUGAGAGCAUCUUCGGAUGCAGAGGCGGCAGCCUACGGUGUCGCGACAGCGCCAACGUUCUCAACUAUGACACGCAAAACGCGUGCUCCGUUGAAUGGAGUUUAUCAUG [A39C U78A G84U U90C] | ≤ -4.2
12 | GGAUCUUCUCGAUCUAACAAAAAAGACAAAUCUGCCACCAAGCUUGAGAGCAUCUUCGGAUGCAACGGCGGCAGCCUUCGGUGGAGCCAUAGCGCCAACGUUCUCAACUAUGACACGCAAAACGCGUGCUCCGUUGAAUUGAGUUUAUCAUG [A39C G65A A66C C85A G88C G140U] | ≤ -4.2
13 | GGAUCUUCUCGAUCUAACAAAAAAGACAAAUCUGCCACCAAGCUUGAGAGCAUCUUCGGAUGCAGAGGCGGCAGCCUUCCGUGGUGCGGUAGCGCCAACGUUCUCAACUAUGACAGGCAAAACGCGUGCUCCGUUGAAUGGAGUUUAUCAUG [A39C G80C C85U A89G C116G] | ≤ -4.2
14 | GGAUCUUCUCGAUCUAACAAAAAAGACAAAUCUGCCACGAAGCUUGAGAGCAUCUUCGGAUGCAGAGGCCGCAGCCUUCGGUGGCGCGAUACCGCCAACGUUCUCAACUAUGACACGCAAAACGCGUGCUCCGUGGAAUGGAGUGUAACAUG [A39G G70C G92C U135G U145G U148A] | ≤ -4.2
15 | GGAUCUUCUCGAUCUAACAAAAAAGACAAAUCUGCCACGAAGCUUGAGAGCAUCUUCGGAUGCAGAGGGGGCAGCCUUCGGUGGCGCGAUAGUGCCAACGUUGUCAAUUAUGACAUGCAAAACGCGUGCUCCGUUGCAUGGAGUUUAUCAUG [A39G C69G C93U C103G C108U C116U A137C] | ≤ -4.2
16 | GGAUCUUCUCGAUCUAACAAAAAAGACAAAUCUGCCACGAAGCUUGAGAGCAUCUGCGGAUGCAGUGGCGGCAGCCUUCGGUGGCUCGAUAGCGCCAACGUUCUCACCUAUGACACGCAAAACGCGUGCUCCGUUGAAUGGAGUUUAUCAUG [A39G U56G A66U G86U A107C] | -3.99
17 | GGAUCUUCUCGAUCUAACAAAAAAGACAAAUCUGCCACCAAGCUUGAGAGCAUCUUCGGAUGCAGAGGCGGCAGCCUUCGGUGGCACGAUAGCGCCAACGUUCUCAACUAUGACACGCAAAACGCGUGCUCCGUUGAAUGGAGUUUAUCAUU [A39C G86A G152U] | ≤ -4.2
18 | GGAUCUUCUCGAUCUAACAAAAAAGACAAAUCUGCCACGAAGCUUGAGAGCACCUUCGGAUGCAGAGGCGGCAGCCUUCGGUGGCGCGAUUGCGGCAACGUUCUCAACUAUGACACGCAAAACGCGUGCUCCGUUGAAUGGAGUUUAUCAUG [A39G U53C A91U C95G] | ≤ -4.2
19 | GGAUCUUCUCGAUCUAACAAAAAAGACAAAUCUGCCACCAAGCUUGAGAGCAUCUUCGGAUGCAGAGGCCGCAGCCUUCGGUGGCGCGAUAGCGCCGACGUUCUCAACUAUGACACGCAAAACGCGUGCUCCGUUGAAUGGAGUUUAUCAUG [A39C G70C A97G] | ≤ -4.2
